Consider seven molecules from patent US20160272683A1 (Novo Nordisk, published 2016).

Numbered stars: 1 amine (or outer) side, 2 acyl side, 3 side chain; on linkers, the order of the positions; unused ones are H or OH. * marks the point of attachment. C20 diacid = O=C(O)CCCCCCCCCCCCCCCCCCC(=O)*; C18 diacid = O=C(O)CCCCCCCCCCCCCCCCC(=O)*; γGlu = O=C(O)[C@H](CCC(=O)[*:2])N[*:1]

Assay [1] concerns the target T1, human calcitonin receptor on BHK570/CRE-luc cells (human, UniProt P30988 25-474).
T1 sequence (looked up): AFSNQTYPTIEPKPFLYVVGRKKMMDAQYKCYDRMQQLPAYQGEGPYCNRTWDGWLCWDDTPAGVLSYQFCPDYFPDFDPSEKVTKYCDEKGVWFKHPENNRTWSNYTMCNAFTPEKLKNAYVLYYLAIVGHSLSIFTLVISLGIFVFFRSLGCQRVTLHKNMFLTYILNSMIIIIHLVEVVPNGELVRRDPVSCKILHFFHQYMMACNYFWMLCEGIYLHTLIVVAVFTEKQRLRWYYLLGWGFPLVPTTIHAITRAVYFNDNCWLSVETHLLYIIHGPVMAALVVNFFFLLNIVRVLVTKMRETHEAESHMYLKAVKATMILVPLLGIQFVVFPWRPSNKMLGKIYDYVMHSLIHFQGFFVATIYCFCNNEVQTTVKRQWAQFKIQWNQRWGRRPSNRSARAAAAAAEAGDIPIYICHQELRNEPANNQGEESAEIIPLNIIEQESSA
The experiment in a line: cell-based or functional assay.

The target in assay [2] is T2, human amylin 3(a) receptor (human calcitonin receptor co-expressed with RAMP-3) on BHK570/CRE-luc cells (human, UniProt P30988 25-474; O60896 24-148).
T2 sequence (looked up) 1: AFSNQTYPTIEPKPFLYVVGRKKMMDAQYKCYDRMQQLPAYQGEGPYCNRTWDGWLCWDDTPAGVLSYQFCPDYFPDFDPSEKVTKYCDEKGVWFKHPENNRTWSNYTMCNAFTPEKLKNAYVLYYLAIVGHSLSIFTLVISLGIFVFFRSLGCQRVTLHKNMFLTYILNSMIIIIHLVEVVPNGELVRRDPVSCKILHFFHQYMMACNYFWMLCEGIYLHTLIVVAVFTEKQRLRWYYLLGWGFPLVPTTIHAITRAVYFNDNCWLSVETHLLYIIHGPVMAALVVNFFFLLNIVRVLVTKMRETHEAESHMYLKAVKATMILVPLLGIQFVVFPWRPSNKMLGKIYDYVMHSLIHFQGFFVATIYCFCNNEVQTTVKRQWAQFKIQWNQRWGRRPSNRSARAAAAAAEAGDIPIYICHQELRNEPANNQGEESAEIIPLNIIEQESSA
T2 sequence (looked up) 2: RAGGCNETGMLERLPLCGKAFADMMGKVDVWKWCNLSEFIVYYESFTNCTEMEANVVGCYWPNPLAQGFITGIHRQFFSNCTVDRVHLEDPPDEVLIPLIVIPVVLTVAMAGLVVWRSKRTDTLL
The experiment in a line: cell-based or functional assay.

B1: [N-terminal(C18 diacid-gGlu), des1, 6T, 9V, 30S, 31G]mimylin (peptide)
peptide: {C18 diacid-γGlu}-ASELTTAVLGRLSAELHELATLPRTETGSGSP-NH2
SMILES: CC(C)C[C@H](NC(=O)[C@H](CCC(=O)O)NC(=O)[C@H](Cc1c[nH]cn1)NC(=O)[C@H](CC(C)C)NC(=O)[C@H](CCC(=O)O)NC(=O)[C@H](C)NC(=O)[C@H](CO)NC(=O)[C@H](CC(C)C)NC(=O)[C@H](CCCNC(=N)N)NC(=O)CNC(=O)[C@H](CC(C)C)NC(=O)[C@@H](NC(=O)[C@H](C)NC(=O)[C@@H](NC(=O)[C@@H](NC(=O)[C@H](CC(C)C)NC(=O)[C@H](CCC(=O)O)NC(=O)[C@H](CO)NC(=O)[C@H](C)NC(=O)CC[C@H](NC(=O)CCCCCCCCCCCCCCCCC(=O)O)C(=O)O)[C@@H](C)O)[C@@H](C)O)C(C)C)C(=O)N[C@@H](C)C(=O)N[C@H](C(=O)N[C@@H](CC(C)C)C(=O)N1CCC[C@H]1C(=O)N[C@@H](CCCNC(=N)N)C(=O)N[C@H](C(=O)N[C@@H](CCC(=O)O)C(=O)N[C@H](C(=O)NCC(=O)N[C@@H](CO)C(=O)NCC(=O)N[C@@H](CO)C(=O)N1CCC[C@H]1C(N)=O)[C@@H](C)O)[C@@H](C)O)[C@@H](C)O
B1: in assay [1], the “hCTR funct. EC50 (pM), tested with HSA” value came out at 9 pM. Moreover, the “hAmylin-R funct. EC50 (pM), tested with HSA” value (“hAmylin-R funct. EC50 (pM)” for short) in assay [2] is 19 pM.

B2: [N-terminal(C20 diacid-gGlu), des1, 23Y, 30S, 31G, 34K, C-terminal(-)]mimylin (peptide)
peptide: {C20 diacid-γGlu}-ASELSTAALGRLSAELHELATYPRTETGSGSPK-OH
SMILES: CC(C)C[C@H](NC(=O)[C@H](C)NC(=O)[C@H](C)NC(=O)[C@@H](NC(=O)[C@H](CO)NC(=O)[C@H](CC(C)C)NC(=O)[C@H](CCC(=O)O)NC(=O)[C@H](CO)NC(=O)[C@H](C)NC(=O)CC[C@H](NC(=O)CCCCCCCCCCCCCCCCCCC(=O)O)C(=O)O)[C@@H](C)O)C(=O)NCC(=O)N[C@@H](CCCNC(=N)N)C(=O)N[C@@H](CC(C)C)C(=O)N[C@@H](CO)C(=O)N[C@@H](C)C(=O)N[C@@H](CCC(=O)O)C(=O)N[C@@H](CC(C)C)C(=O)N[C@@H](Cc1c[nH]cn1)C(=O)N[C@@H](CCC(=O)O)C(=O)N[C@@H](CC(C)C)C(=O)N[C@@H](C)C(=O)N[C@H](C(=O)N[C@@H](Cc1ccc(O)cc1)C(=O)N1CCC[C@H]1C(=O)N[C@@H](CCCNC(=N)N)C(=O)N[C@H](C(=O)N[C@@H](CCC(=O)O)C(=O)N[C@H](C(=O)NCC(=O)N[C@@H](CO)C(=O)NCC(=O)N[C@@H](CO)C(=O)N1CCC[C@H]1C(=O)N[C@@H](CCCCN)C(=O)O)[C@@H](C)O)[C@@H](C)O)[C@@H](C)O
Take B2: the “hCTR funct. EC50 (pM), tested with HSA” value in assay [1] turned out to be 53 pM. In addition, the “hAmylin-R funct. EC50 (pM)” value in assay [2] amounted to 209 pM.

B3: [N-terminal(C20 diacid-gGlu), des1, 23Y, 30S, 31G, 34G, C-terminal(-)]mimylin (peptide)
peptide: {C20 diacid-γGlu}-ASELSTAALGRLSAELHELATYPRTETGSGSPG-OH
SMILES: CC(C)C[C@H](NC(=O)[C@H](C)NC(=O)[C@H](C)NC(=O)[C@@H](NC(=O)[C@H](CO)NC(=O)[C@H](CC(C)C)NC(=O)[C@H](CCC(=O)O)NC(=O)[C@H](CO)NC(=O)[C@H](C)NC(=O)CC[C@H](NC(=O)CCCCCCCCCCCCCCCCCCC(=O)O)C(=O)O)[C@@H](C)O)C(=O)NCC(=O)N[C@@H](CCCNC(=N)N)C(=O)N[C@@H](CC(C)C)C(=O)N[C@@H](CO)C(=O)N[C@@H](C)C(=O)N[C@@H](CCC(=O)O)C(=O)N[C@@H](CC(C)C)C(=O)N[C@@H](Cc1c[nH]cn1)C(=O)N[C@@H](CCC(=O)O)C(=O)N[C@@H](CC(C)C)C(=O)N[C@@H](C)C(=O)N[C@H](C(=O)N[C@@H](Cc1ccc(O)cc1)C(=O)N1CCC[C@H]1C(=O)N[C@@H](CCCNC(=N)N)C(=O)N[C@H](C(=O)N[C@@H](CCC(=O)O)C(=O)N[C@H](C(=O)NCC(=O)N[C@@H](CO)C(=O)NCC(=O)N[C@@H](CO)C(=O)N1CCC[C@H]1C(=O)NCC(=O)O)[C@@H](C)O)[C@@H](C)O)[C@@H](C)O
As for B3, in assay [1], the “hCTR funct. EC50 (pM), tested with HSA” value came to 50 pM. Moreover, the “hAmylin-R funct. EC50 (pM)” value in assay [2] is 210 pM.

For the molecule {C20 diacid-γGlu}-ASELSTAALGRLSAELHELATYPRTETGSGSY-OH [[N-terminal(C20 diacid-gGlu), des1, 23Y, 30S, 31G, 33Y, C-terminal(-)]mimylin], the “hCTR funct. EC50 (pM), tested with HSA” value in assay [1] came out at 418 pM. Moreover, the “hAmylin-R funct. EC50 (pM)” value in assay [2] was found to be 976 pM.

In the case of {C18 diacid-γGlu}-ASEVSTAVLGRLSAELHELATLPRTETGSGSP-NH2 [[N-terminal(C18 diacid-gGlu), des1, 5V, 9V, 30S, 31G]mimylin], in assay [1], the “hCTR funct. EC50 (pM), tested with HSA” value came out at 87 pM. Besides, the “hAmylin-R funct. EC50 (pM)” value in assay [2] was determined as 356 pM.

B4: [N-terminal(C20 diacid-gGlu), des1, 12H, 25H, 30S, 31G]mimylin (peptide)
peptide: {C20 diacid-γGlu}-ASELSTAALGHLSAELHELATLPHTETGSGSP-NH2
SMILES: CC(C)C[C@H](NC(=O)[C@H](C)NC(=O)[C@H](C)NC(=O)[C@@H](NC(=O)[C@H](CO)NC(=O)[C@H](CC(C)C)NC(=O)[C@H](CCC(=O)O)NC(=O)[C@H](CO)NC(=O)[C@H](C)NC(=O)CC[C@H](NC(=O)CCCCCCCCCCCCCCCCCCC(=O)O)C(=O)O)[C@@H](C)O)C(=O)NCC(=O)N[C@@H](Cc1c[nH]cn1)C(=O)N[C@@H](CC(C)C)C(=O)N[C@@H](CO)C(=O)N[C@@H](C)C(=O)N[C@@H](CCC(=O)O)C(=O)N[C@@H](CC(C)C)C(=O)N[C@@H](Cc1c[nH]cn1)C(=O)N[C@@H](CCC(=O)O)C(=O)N[C@@H](CC(C)C)C(=O)N[C@@H](C)C(=O)N[C@H](C(=O)N[C@@H](CC(C)C)C(=O)N1CCC[C@H]1C(=O)N[C@@H](Cc1c[nH]cn1)C(=O)N[C@H](C(=O)N[C@@H](CCC(=O)O)C(=O)N[C@H](C(=O)NCC(=O)N[C@@H](CO)C(=O)NCC(=O)N[C@@H](CO)C(=O)N1CCC[C@H]1C(N)=O)[C@@H](C)O)[C@@H](C)O)[C@@H](C)O
For B4, the “hCTR funct. EC50 (pM), tested with HSA” value in assay [1] was determined as 123 pM. The “hAmylin-R funct. EC50 (pM)” value in assay [2] was 440 pM.

B5: [N-terminal(C20 diacid-gGlu), des1, 9S, 23Y, 30S, 31G, 33Y]mimylin (peptide)
peptide: {C20 diacid-γGlu}-ASELSTASLGRLSAELHELATYPRTETGSGSY-NH2
SMILES: CC(C)C[C@H](NC(=O)[C@H](CO)NC(=O)[C@H](C)NC(=O)[C@@H](NC(=O)[C@H](CO)NC(=O)[C@H](CC(C)C)NC(=O)[C@H](CCC(=O)O)NC(=O)[C@H](CO)NC(=O)[C@H](C)NC(=O)CC[C@H](NC(=O)CCCCCCCCCCCCCCCCCCC(=O)O)C(=O)O)[C@@H](C)O)C(=O)NCC(=O)N[C@@H](CCCNC(=N)N)C(=O)N[C@@H](CC(C)C)C(=O)N[C@@H](CO)C(=O)N[C@@H](C)C(=O)N[C@@H](CCC(=O)O)C(=O)N[C@@H](CC(C)C)C(=O)N[C@@H](Cc1c[nH]cn1)C(=O)N[C@@H](CCC(=O)O)C(=O)N[C@@H](CC(C)C)C(=O)N[C@@H](C)C(=O)N[C@H](C(=O)N[C@@H](Cc1ccc(O)cc1)C(=O)N1CCC[C@H]1C(=O)N[C@@H](CCCNC(=N)N)C(=O)N[C@H](C(=O)N[C@@H](CCC(=O)O)C(=O)N[C@H](C(=O)NCC(=O)N[C@@H](CO)C(=O)NCC(=O)N[C@@H](CO)C(=O)N[C@@H](Cc1ccc(O)cc1)C(N)=O)[C@@H](C)O)[C@@H](C)O)[C@@H](C)O
For B5, the “hCTR funct. EC50 (pM), tested with HSA” value in assay [1] stood at 42 pM. In assay [2], the “hAmylin-R funct. EC50 (pM)” value is 81 pM.
